Consider one substance from patent publication US20170246372A1.

The test has as its target ADAMTS-5 (UniProt Q9UNA0). The test can be described thus: cell-based or functional assay.
Sequence of UniProt Q9UNA0 (Q9UNA0 262-622 limits assumed): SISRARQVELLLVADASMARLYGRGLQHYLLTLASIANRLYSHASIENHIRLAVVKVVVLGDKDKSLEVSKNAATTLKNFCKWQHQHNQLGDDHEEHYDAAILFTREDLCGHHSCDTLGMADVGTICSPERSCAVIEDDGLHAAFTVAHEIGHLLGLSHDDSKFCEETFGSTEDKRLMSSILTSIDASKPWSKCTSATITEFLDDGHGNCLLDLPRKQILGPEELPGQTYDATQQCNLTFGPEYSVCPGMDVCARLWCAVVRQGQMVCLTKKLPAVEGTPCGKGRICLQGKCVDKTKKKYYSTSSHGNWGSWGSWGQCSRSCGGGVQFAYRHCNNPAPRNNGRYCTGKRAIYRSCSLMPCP

“purified A2M (alpha-2-macroglobulin) (from UniProt P01023 24-1474)” gave an IC50 for inhibiting 500 ng/ml of ADAMTS-5 (bovine cartilage explants, 2 days, 3-fold serial dilution of A2M) of 7 µg/mL and a Maximum inhibition (bovine cartilage explants treated with protease, 2 days) of 90%.
